The values below are quoted from earlier work in article PMC9836085.

The target in data set [1] is Rab6 (Drosophila melanogaster) (UniProt O18334).
In data set [2] the target is Sas6 (Drosophila melanogaster) (UniProt Q9VAC8).
UniProt Q9VAC8, sequence (Q9VAC8 whole entry): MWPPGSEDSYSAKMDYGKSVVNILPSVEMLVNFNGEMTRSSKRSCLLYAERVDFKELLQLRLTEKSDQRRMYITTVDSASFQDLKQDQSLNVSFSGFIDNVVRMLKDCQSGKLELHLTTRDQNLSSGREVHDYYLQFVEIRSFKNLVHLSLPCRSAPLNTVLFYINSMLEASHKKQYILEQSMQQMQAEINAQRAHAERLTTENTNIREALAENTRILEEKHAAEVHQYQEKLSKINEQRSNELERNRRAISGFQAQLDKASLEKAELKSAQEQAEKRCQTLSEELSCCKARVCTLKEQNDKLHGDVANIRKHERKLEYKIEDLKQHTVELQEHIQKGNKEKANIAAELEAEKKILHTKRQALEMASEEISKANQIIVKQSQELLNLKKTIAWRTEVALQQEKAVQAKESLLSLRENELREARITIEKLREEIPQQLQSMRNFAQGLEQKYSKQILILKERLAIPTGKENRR

UniProt O18334, sequence (O18334 whole entry): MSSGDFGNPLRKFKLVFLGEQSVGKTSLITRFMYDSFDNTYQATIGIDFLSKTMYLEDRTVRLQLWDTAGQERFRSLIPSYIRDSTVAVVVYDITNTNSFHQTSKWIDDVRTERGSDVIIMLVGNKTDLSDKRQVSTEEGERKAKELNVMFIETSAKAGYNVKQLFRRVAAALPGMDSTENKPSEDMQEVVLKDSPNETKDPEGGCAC

On to Gorab (from UniProt Q8IQQ4), for which the Kd was 2.24 µM in data set [1] and 0.047 µM in data set [2].

A word on the Kd: it is the free concentration of one partner at which half of the binding sites on the other are occupied at equilibrium, for simple one-to-one binding.
